Assay results reported in publication PMC10786891, “Massively parallel profiling of RNA-targeting CRISPR-Cas13d”.

T1: EsCas13d, nuclease-dead (Eubacterium siraeum, UniProt B0MS50, R295A;H300A;R849A;H854A)
T1 sequence: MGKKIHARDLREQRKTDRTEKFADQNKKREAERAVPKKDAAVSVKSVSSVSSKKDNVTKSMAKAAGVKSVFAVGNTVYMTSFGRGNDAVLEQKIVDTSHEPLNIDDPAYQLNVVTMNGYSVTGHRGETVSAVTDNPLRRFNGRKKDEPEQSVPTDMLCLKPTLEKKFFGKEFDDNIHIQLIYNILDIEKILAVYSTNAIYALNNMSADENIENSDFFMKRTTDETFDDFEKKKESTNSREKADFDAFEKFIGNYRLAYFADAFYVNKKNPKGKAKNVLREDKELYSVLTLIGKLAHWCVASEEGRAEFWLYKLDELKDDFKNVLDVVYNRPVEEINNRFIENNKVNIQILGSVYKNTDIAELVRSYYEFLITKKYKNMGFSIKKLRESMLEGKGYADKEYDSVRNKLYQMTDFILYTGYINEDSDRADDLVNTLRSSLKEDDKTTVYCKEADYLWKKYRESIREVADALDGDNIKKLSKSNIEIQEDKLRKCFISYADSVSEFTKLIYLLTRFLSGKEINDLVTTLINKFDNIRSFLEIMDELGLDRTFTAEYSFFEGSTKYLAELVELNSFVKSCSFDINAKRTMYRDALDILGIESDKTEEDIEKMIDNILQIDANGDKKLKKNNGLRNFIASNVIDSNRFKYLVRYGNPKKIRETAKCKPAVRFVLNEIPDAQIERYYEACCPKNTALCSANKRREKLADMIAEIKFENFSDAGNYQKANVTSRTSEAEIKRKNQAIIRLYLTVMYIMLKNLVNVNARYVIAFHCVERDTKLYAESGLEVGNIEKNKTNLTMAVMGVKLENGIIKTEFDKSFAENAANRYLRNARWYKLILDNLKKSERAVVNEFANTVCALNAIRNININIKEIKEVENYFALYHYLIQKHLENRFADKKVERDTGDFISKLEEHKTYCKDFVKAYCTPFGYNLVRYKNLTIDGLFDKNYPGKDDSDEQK

B1: target 3 insG 3' of 8,insU 3' of 4 (mixed)
RNA 1: CACCCGUGCAAAAUUGCAGGGGUCUAAAACGACCUGAAUAUUUCAGAUCAAA
RNA 2: GGGAAUGGAUCCACAUCUACGAAUUCGUUUUUGAUCUGAAAUAUGUCAGUGUCUGCAGAUCGGAAGAGCACACGU
B2: target 1 insA 3' of 15,insC 3' of 5 (mixed)
RNA 1: CACCCGUGCAAAAAUGCAGGGGUCUAAAACUGAGCGGAUAACCUCUCUAUGG
RNA 2: GGGAAUGGAUCCACAUCUACGAAUUCGUACCAUAGAGAAGGUUAUCCGCCUCACCGAGAUCGGAAGAGCACACGU
B3: target 3 complement block 2-6 (mixed)
RNA 1: CACCCGUGCAAAAUUGCAGGGGUCUAAAACGACCUGAAUAUUUCAGAUCAAA
RNA 2: GGGAAUGGAUCCACAUCUACGAAUUCGUUUUUGAUCUGAAAUAUUGUCCACUGCAGAUCGGAAGAGCACACGU
B4: target 3 A11C,G14A (mixed)
RNA 1: CACCCGUGCAAAAUUGCAGGGGUCUAAAACGACCUGAAUAUUUCAGAUCAAA
RNA 2: GGGAAUGGAUCCACAUCUACGAAUUCGUUUUUGAUCUAAACUAUUCAGGUCUGCAGAUCGGAAGAGCACACGU
B5: target 3 U2A,A5U (mixed)
RNA 1: CACCCGUGCAAAAUUGCAGGGGUCUAAAACGACCUGAAUAUUUCAGAUCAAA
RNA 2: GGGAAUGGAUCCACAUCUACGAAUUCGUUUUUGAUCUGAAAUAUUCUGGACUGCAGAUCGGAAGAGCACACGU
B6: target 3 insU 3' of 6 (mixed)
RNA 1: CACCCGUGCAAAAUUGCAGGGGUCUAAAACGACCUGAAUAUUUCAGAUCAAA
RNA 2: GGGAAUGGAUCCACAUCUACGAAUUCGUUUUUGAUCUGAAAUAUUCUAGGUCUGCAGAUCGGAAGAGCACACGU
B7: target 3 insA 3' of 8,insA 3' of 8 (mixed)
RNA 1: CACCCGUGCAAAAUUGCAGGGGUCUAAAACGACCUGAAUAUUUCAGAUCAAA
RNA 2: GGGAAUGGAUCCACAUCUACGAAUUCGUUUUUGAUCUGAAAUAUAAUCAGGUCUGCAGAUCGGAAGAGCACACGU
B8: target 3 insC 3' of 13,insU 3' of 5 (mixed)
RNA 1: CACCCGUGCAAAAUUGCAGGGGUCUAAAACGACCUGAAUAUUUCAGAUCAAA
RNA 2: GGGAAUGGAUCCACAUCUACGAAUUCGUUUUUGAUCUGACAAUAUUCAUGGUCUGCAGAUCGGAAGAGCACACGU
B9: target 3 insA 3' of 21,insA 3' of 4 (mixed)
RNA 1: CACCCGUGCAAAAUUGCAGGGGUCUAAAACGACCUGAAUAUUUCAGAUCAAA
RNA 2: GGGAAUGGAUCCACAUCUACGAAUUCGUUUUAUGAUCUGAAAUAUUCAGAGUCUGCAGAUCGGAAGAGCACACGU
B10: target 3 insG 3' of 8,insA 3' of 2 (mixed)
RNA 1: CACCCGUGCAAAAUUGCAGGGGUCUAAAACGACCUGAAUAUUUCAGAUCAAA
RNA 2: GGGAAUGGAUCCACAUCUACGAAUUCGUUUUUGAUCUGAAAUAUGUCAGGUACUGCAGAUCGGAAGAGCACACGU
B11: target 3 insA 3' of 7,insA 3' of 4 (mixed)
RNA 1: CACCCGUGCAAAAUUGCAGGGGUCUAAAACGACCUGAAUAUUUCAGAUCAAA
RNA 2: GGGAAUGGAUCCACAUCUACGAAUUCGUUUUUGAUCUGAAAUAUUACAGAGUCUGCAGAUCGGAAGAGCACACGU
B12: target 3 A18G,U22G (mixed)
RNA 1: CACCCGUGCAAAAUUGCAGGGGUCUAAAACGACCUGAAUAUUUCAGAUCAAA
RNA 2: GGGAAUGGAUCCACAUCUACGAAUUCGUUGUUGGUCUGAAAUAUUCAGGUCUGCAGAUCGGAAGAGCACACGU
B13: target 1 C2U,G15U (mixed)
RNA 1: CACCCGUGCAAAAAUGCAGGGGUCUAAAACUGAGCGGAUAACCUCUCUAUGG
RNA 2: GGGAAUGGAUCCACAUCUACGAAUUCGUACCAUAGAUAGGUUAUCCGCUUACCGAGAUCGGAAGAGCACACGU
B14: target 3 insC 3' of 7,insG 3' of 5 (mixed)
RNA 1: CACCCGUGCAAAAUUGCAGGGGUCUAAAACGACCUGAAUAUUUCAGAUCAAA
RNA 2: GGGAAUGGAUCCACAUCUACGAAUUCGUUUUUGAUCUGAAAUAUUCCAGGGUCUGCAGAUCGGAAGAGCACACGU
B15: target 3 U2C,A5C (mixed)
RNA 1: CACCCGUGCAAAAUUGCAGGGGUCUAAAACGACCUGAAUAUUUCAGAUCAAA
RNA 2: GGGAAUGGAUCCACAUCUACGAAUUCGUUUUUGAUCUGAAAUAUUCCGGCCUGCAGAUCGGAAGAGCACACGU
B16: target 3 insU 3' of 6,insA 3' of 2 (mixed)
RNA 1: CACCCGUGCAAAAUUGCAGGGGUCUAAAACGACCUGAAUAUUUCAGAUCAAA
RNA 2: GGGAAUGGAUCCACAUCUACGAAUUCGUUUUUGAUCUGAAAUAUUCUAGGUACUGCAGAUCGGAAGAGCACACGU
B17: target 3 insG 3' of 16,insU 3' of 1 (mixed)
RNA 1: CACCCGUGCAAAAUUGCAGGGGUCUAAAACGACCUGAAUAUUUCAGAUCAAA
RNA 2: GGGAAUGGAUCCACAUCUACGAAUUCGUUUUUGAUCGUGAAAUAUUCAGGUCUUGCAGAUCGGAAGAGCACACGU
B18: target 3 insC 3' of 11,insA 3' of 10 (mixed)
RNA 1: CACCCGUGCAAAAUUGCAGGGGUCUAAAACGACCUGAAUAUUUCAGAUCAAA
RNA 2: GGGAAUGGAUCCACAUCUACGAAUUCGUUUUUGAUCUGAAACUAAUUCAGGUCUGCAGAUCGGAAGAGCACACGU
B19: target 3 insG 3' of 6,insU 3' of 5 (mixed)
RNA 1: CACCCGUGCAAAAUUGCAGGGGUCUAAAACGACCUGAAUAUUUCAGAUCAAA
RNA 2: GGGAAUGGAUCCACAUCUACGAAUUCGUUUUUGAUCUGAAAUAUUCGAUGGUCUGCAGAUCGGAAGAGCACACGU
B20: target 3 A11G,U22A (mixed)
RNA 1: CACCCGUGCAAAAUUGCAGGGGUCUAAAACGACCUGAAUAUUUCAGAUCAAA
RNA 2: GGGAAUGGAUCCACAUCUACGAAUUCGUUAUUGAUCUGAAGUAUUCAGGUCUGCAGAUCGGAAGAGCACACGU
B21: target 3 insG 3' of 9,insG 3' of 6 (mixed)
RNA 1: CACCCGUGCAAAAUUGCAGGGGUCUAAAACGACCUGAAUAUUUCAGAUCAAA
RNA 2: GGGAAUGGAUCCACAUCUACGAAUUCGUUUUUGAUCUGAAAUAGUUCGAGGUCUGCAGAUCGGAAGAGCACACGU
B22: target 3 G4C,U22A (mixed)
RNA 1: CACCCGUGCAAAAUUGCAGGGGUCUAAAACGACCUGAAUAUUUCAGAUCAAA
RNA 2: GGGAAUGGAUCCACAUCUACGAAUUCGUUAUUGAUCUGAAAUAUUCACGUCUGCAGAUCGGAAGAGCACACGU
B23: target 1 insC 3' of 14,insU 3' of 14 (mixed)
RNA 1: CACCCGUGCAAAAAUGCAGGGGUCUAAAACUGAGCGGAUAACCUCUCUAUGG
RNA 2: GGGAAUGGAUCCACAUCUACGAAUUCGUACCAUAGAGACUGGUUAUCCGCUCACCGAGAUCGGAAGAGCACACGU
B24: target 3 insC 3' of 9,insA 3' of 3 (mixed)
RNA 1: CACCCGUGCAAAAUUGCAGGGGUCUAAAACGACCUGAAUAUUUCAGAUCAAA
RNA 2: GGGAAUGGAUCCACAUCUACGAAUUCGUUUUUGAUCUGAAAUACUUCAGGAUCUGCAGAUCGGAAGAGCACACGU

molecular target: T1, EsCas13d, nuclease-dead; experiment: crRNA (strand 1, pre-loaded); Mg2+; 40 mM Tris-HCl pH 7.5, 150 mM NaCl, 6 mM MgCl2, 1 mM DTT, 0.1% Tween-20, 0.2 mg/ml BSA; 25 C; 10 min per concentration, then washed; conditions: tags: His6-TwinStrep-SUMO cleaved; N-terminal SNAP kept (SNAP-Surface 488); label: 3' end held by stalled T7 RNA polymerase

B1 and B2 are within error of each other in Kd: 21.2 ± 4.45 nM for the first, 16.7 ± 1.4 nM for the second.

B3 and B4 are within error of each other in Kd: 58.5 ± 9 nM for the first, 51 ± 10 nM for the second.

First: B5
Second: B6
The Kd of the first is 2.4-fold lower: 7.35 ± 1.15 nM for the first, 17.3 ± 1.35 nM for the second.

B7 and B8 are within error of each other in Kd: 63 ± 8.5 nM for the first, 100 ± 40 nM for the second.

B9 and B10 are within error of each other in Kd: roughly 81.5 nM for the first, 67.5 ± 17 nM for the second.

B11 and B12 are within error of each other in Kd: 66 ± 12 nM for the first, 64 ± 10 nM for the second.

First: B13
Second: B14
The Kd of the first is 2-fold lower: 29 ± 4 nM for the first, 58.5 ± 9.5 nM for the second. The first binds more tightly here.

Going from B15 to B16, the Kd falls from 105 ± 18.5 nM to 47 ± 14 nM (2.2-fold). The second binds more tightly here.

B17 and B18 are within error of each other in Kd: 74 ± 24 nM for the first, 46.5 ± 16.5 nM for the second.

First: B19
Second: B20
The Kd of the first is 8.8-fold lower: 7.59 ± 0.605 nM for the first, 67 ± 15 nM for the second. The first binds more tightly here.

Compared with B21, B22 is 6.6-fold lower in Kd: 71 ± 10 nM for the first, 10.7 ± 1 nM for the second.

Compared with B23, B24 is 1.7-fold higher in Kd: 50 ± 12 nM for the first, 83.5 ± 14 nM for the second.
